Laboratory results as given in patent US20100260668A1 (published 2010).
Blank lines part the entries; values can stand above or below the binder they belong to.

Biological target: T1, DLL4 ECD His tag (UniProt Q9NR61 27-529, limits assumed)
T1 construct: extracellular domain; also called DLL ECD His tag
Experiment: SPR (Biacore), DVD-Ig captured, DLL4 as analyte

- Kd: 1.55 nM
- koff: 8.84e-05 s⁻¹
- kon: 56900 M⁻¹ s⁻¹
B2: DVD510 (bispecific antibody, human IgG1, kappa)
heavy: not shown
light: DIQMTQSPSSLSASVGDRVTITCRASQVIRRSLAWYQQKPGKAPKLLIYAASNLASGVPSRFSGSGSGTDFTLTISSLQPEDFATYYCQQSNTSPLTFGQGTKVEIKRTVAAPSVFIFPPDIQMTQSSSYLSVSLGGRVTITCKASDHINNWLAWYQQKPGNAPRLLISGATSLETGVPSRFSGSGSGKDYTLSITSLQTEDVATYYCQQYWSIPLTFGAGTKLELKRTVAAPSVFIFPPSDEQLKSGTASVVCLLNNFYPREAKVQWKVDNALQSGNSQESVTEQDSKDSTYSLSSTLTLSKADYEKHKVYACEVTHQGLSSPVTKSFNRGEC
notes: Outer AB071 (VEGF), inner AB072 (DLL4); HC linker short, LC linker long; also called DVD-Ig DVD510

- Kd: 4.99 nM
- koff: 0.000583 s⁻¹
- kon: 117000 M⁻¹ s⁻¹
B10: DVD516 (bispecific antibody, human IgG1, lambda)
heavy: not shown
light: DIQMTQSPSSLSASVGDRVTITCRASQVIRRSLAWYQQKPGKAPKLLIYAASNLASGVPSRFSGSGSGTDFTLTISSLQPEDFATYYCQQSNTSPLTFGQGTKVEIKRTVAAPQAVVTQESALTTSPGETVTLTCRSSTGAVTTSNYANWVQEKPDHLFTGLIGGTNNRAPGVPARFSGSLIGDKAALTITGAQTEDEAIYFCALWYSNHWVFGGGTKLTVLGQPKAAPSVTLFPPSSEELQANKATLVCLISDFYPGAVTVAWKADSSPVKAGVETTTPSKQSNNKYAASSYLSLTPEQWKSHRSYSCQVTHEGSTVEKTVAPTECS
notes: Outer AB071 (VEGF), inner AB073 (DLL4); HC linker short, LC linker short; also called DVD-Ig DVD516

- Kd: 4.81 nM
- koff: 0.00152 s⁻¹
- kon: 316000 M⁻¹ s⁻¹
B11: DVD528 (bispecific antibody, human IgG1, lambda)
heavy: not shown
light: B10 light
notes: Outer AB071 (VEGF), inner AB073 (DLL4); HC linker long, LC linker short; also called DVD-Ig DVD528

- Kd: 10.5 nM
- koff: 0.00121 s⁻¹
- kon: 115000 M⁻¹ s⁻¹
B12: DVD522 (bispecific antibody, human IgG1, kappa, lambda, L234A L235A)
heavy: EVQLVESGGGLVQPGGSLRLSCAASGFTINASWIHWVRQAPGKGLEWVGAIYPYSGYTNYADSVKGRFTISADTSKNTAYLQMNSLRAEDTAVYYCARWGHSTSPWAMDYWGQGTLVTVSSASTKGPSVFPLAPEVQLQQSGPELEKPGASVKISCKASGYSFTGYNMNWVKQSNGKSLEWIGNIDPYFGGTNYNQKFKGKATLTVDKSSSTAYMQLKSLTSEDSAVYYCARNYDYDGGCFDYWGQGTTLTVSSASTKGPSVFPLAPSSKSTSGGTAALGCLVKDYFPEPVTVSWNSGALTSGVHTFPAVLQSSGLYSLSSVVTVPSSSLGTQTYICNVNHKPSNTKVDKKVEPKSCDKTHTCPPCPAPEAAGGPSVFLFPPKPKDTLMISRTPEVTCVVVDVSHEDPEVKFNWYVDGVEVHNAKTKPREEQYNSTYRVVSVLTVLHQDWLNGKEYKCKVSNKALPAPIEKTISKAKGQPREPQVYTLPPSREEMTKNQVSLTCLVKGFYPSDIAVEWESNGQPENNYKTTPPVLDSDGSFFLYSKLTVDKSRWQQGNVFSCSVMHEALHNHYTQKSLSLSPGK
light: DIQMTQSPSSLSASVGDRVTITCRASQVIRRSLAWYQQKPGKAPKLLIYAASNLASGVPSRFSGSGSGTDFTLTISSLQPEDFATYYCQQSNTSPLTFGQGTKVEIKRTVAAPSVFIFPPQAVVTQESALTTSPGETVTLTCRSSTGAVTTSNYANWVQEKPDHLFTGLIGGTNNRAPGVPARFSGSLIGDKAALTITGAQTEDEAIYFCALWYSNHWVFGGGTKLTVLGQPKAAPSVTLFPPSSEELQANKATLVCLISDFYPGAVTVAWKADSSPVKAGVETTTPSKQSNNKYAASSYLSLTPEQWKSHRSYSCQVTHEGSTVEKTVAPTECS
notes: Outer AB071 (VEGF), inner AB073 (DLL4); HC linker long, LC linker long; also called DVD-Ig DVD522

- Kd: 5.78 nM
- koff: 0.002 s⁻¹
- kon: 346000 M⁻¹ s⁻¹
B13: DVD534 (bispecific antibody, human IgG1, kappa, lambda, L234A L235A)
heavy: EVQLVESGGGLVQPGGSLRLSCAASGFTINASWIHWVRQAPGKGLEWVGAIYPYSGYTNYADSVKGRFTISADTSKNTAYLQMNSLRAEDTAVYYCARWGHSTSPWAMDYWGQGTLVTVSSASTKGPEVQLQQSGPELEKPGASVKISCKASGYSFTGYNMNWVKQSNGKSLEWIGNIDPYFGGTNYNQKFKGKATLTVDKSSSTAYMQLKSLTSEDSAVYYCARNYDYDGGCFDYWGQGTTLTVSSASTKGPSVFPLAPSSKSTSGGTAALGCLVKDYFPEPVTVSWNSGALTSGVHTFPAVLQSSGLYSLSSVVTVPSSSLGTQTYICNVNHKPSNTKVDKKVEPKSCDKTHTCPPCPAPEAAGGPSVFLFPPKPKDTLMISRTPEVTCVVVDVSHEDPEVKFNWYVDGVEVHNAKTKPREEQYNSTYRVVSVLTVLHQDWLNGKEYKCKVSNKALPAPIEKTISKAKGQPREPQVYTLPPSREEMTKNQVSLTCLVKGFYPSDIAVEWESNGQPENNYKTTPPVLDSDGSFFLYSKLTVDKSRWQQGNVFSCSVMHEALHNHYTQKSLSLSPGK
light: B12 light
notes: Outer AB071 (VEGF), inner AB073 (DLL4); HC linker short, LC linker long; also called DVD-Ig DVD534

More lines, now with the values behind:

B1: DVD498 (bispecific antibody, human IgG1, kappa)
heavy: not shown
light: B2 light
notes: Outer AB071 (VEGF), inner AB072 (DLL4); HC linker long, LC linker long; also called DVD-Ig DVD498
- Kd: 1.45 nM
- koff: 9.36e-05 s⁻¹
- kon: 64600 M⁻¹ s⁻¹

B3: DVD446 (bispecific antibody, human IgG1, kappa)
heavy: not shown
light: DIQMTQSPSSLSASVGDRVTITCRASQVIRRSLAWYQQKPGKAPKLLIYAASNLASGVPSRFSGSGSGTDFTLTISSLQPEDFATYYCQQSNTSPLTFGQGTKVEIKRTVAAPDIVMTQSPDSLAVSLGERATISCRASESVDNYGISFMKWFQQKPGQPPKLLIYAASNQGSGVPDRFSGSGSGTDFTLTISSLQAEDVAVYYCQQSKEVPWTFGGGTKVEIKRTVAAPSVFIFPPSDEQLKSGTASVVCLLNNFYPREAKVQWKVDNALQSGNSQESVTEQDSKDSTYSLSSTLTLSKADYEKHKVYACEVTHQGLSSPVTKSFNRGEC
notes: Outer AB071 (VEGF), inner AB069 (DLL4); HC linker short, LC linker short; also called DVD-Ig DVD446
- Kd: 5.81 nM
- koff: 0.000169 s⁻¹
- kon: 29100 M⁻¹ s⁻¹

B4: DVD458 (bispecific antibody, human IgG1, kappa, L234A L235A)
heavy: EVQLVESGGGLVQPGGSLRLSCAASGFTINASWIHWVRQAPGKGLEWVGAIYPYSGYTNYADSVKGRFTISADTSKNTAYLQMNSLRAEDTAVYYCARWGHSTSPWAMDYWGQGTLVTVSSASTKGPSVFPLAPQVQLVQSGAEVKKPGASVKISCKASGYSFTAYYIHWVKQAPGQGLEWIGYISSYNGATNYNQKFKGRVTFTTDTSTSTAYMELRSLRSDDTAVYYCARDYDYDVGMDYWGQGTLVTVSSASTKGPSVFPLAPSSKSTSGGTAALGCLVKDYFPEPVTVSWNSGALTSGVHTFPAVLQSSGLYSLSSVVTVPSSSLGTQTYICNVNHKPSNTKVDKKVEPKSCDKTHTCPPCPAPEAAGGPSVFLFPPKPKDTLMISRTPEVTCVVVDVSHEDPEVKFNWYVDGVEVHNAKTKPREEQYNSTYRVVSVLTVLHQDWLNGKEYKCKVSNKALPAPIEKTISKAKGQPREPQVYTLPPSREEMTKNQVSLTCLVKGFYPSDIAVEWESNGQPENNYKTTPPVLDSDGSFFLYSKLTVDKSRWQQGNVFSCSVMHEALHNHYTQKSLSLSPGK
light: B3 light
notes: Outer AB071 (VEGF), inner AB069 (DLL4); HC linker long, LC linker short; also called DVD-Ig DVD458
- Kd: 16.2 nM
- koff: 0.000261 s⁻¹
- kon: 16100 M⁻¹ s⁻¹

B5: DVD480 (bispecific antibody, human IgG1, kappa)
heavy: not shown
light: DIQMTQSPSSLSASVGDRVTITCRASQVIRRSLAWYQQKPGKAPKLLIYAASNLASGVPSRFSGSGSGTDFTLTISSLQPEDFATYYCQQSNTSPLTFGQGTKVEIKRTVAAPDIQMTQSPSSLSASVGDRVTITCRASQDVSTAVAWYQQKPGKAPKLLIYSASFLYSGVPSRFSGSGSGTDFTLTISSLQPEDFATTYYCQQSYTGTVTFGQGTKVEIKRTVAAPSVFIFPPSDEQLKSGTASVVCLLNNFYPREAKVQWKVDNALQSGNSQESVTEQDSKDSTYSLSSTLTLSKADYEKHKVYACEVTHQGLSSPVTKSFNRGEC
notes: Outer AB071 (VEGF), inner AB015 (DLL4); HC linker long, LC linker short; also called DVD-Ig DVD480
- Kd: 3.38 nM
- koff: 0.000179 s⁻¹
- kon: 53000 M⁻¹ s⁻¹

B6: DVD474 (bispecific antibody, human IgG1, kappa)
heavy: not shown
light: DIQMTQSPSSLSASVGDRVTITCRASQVIRRSLAWYQQKPGKAPKLLIYAASNLASGVPSRFSGSGSGTDFTLTISSLQPEDFATYYCQQSNTSPLTFGQGTKVEIKRTVAAPSVFIFPPDIQMTQSPSSLSASVGDRVTITCRASQDVSTAVAWYQQKPGKAPKLLIYSASFLYSGVPSRFSGSGSGTDFTLTISSLQPEDFATTYYCQQSYTGTVTFGQGTKVEIKRTVAAPSVFIFPPSDEQLKSGTASVVCLLNNFYPREAKVQWKVDNALQSGNSQESVTEQDSKDSTYSLSSTLTLSKADYEKHKVYACEVTHQGLSSPVTKSFNRGEC
notes: Outer AB071 (VEGF), inner AB015 (DLL4); HC linker long, LC linker long; also called DVD-Ig DVD474
- Kd: 1.04 nM

B7: DVD486 (bispecific antibody, human IgG1, kappa)
heavy: not shown
light: B6 light
notes: Outer AB071 (VEGF), inner AB015 (DLL4); HC linker short, LC linker long; also called DVD-Ig DVD486
- Kd: 2.13 nM

B8: DVD492 (bispecific antibody, human IgG1, kappa)
heavy: not shown
light: DIQMTQSPSSLSASVGDRVTITCRASQVIRRSLAWYQQKPGKAPKLLIYAASNLASGVPSRFSGSGSGTDFTLTISSLQPEDFATYYCQQSNTSPLTFGQGTKVEIKRTVAAPDIQMTQSSSYLSVSLGGRVTITCKASDHINNWLAWYQQKPGNAPRLLISGATSLETGVPSRFSGSGSGKDYTLSITSLQTEDVATYYCQQYWSIPLTFGAGTKLELKRTVAAPSVFIFPPSDEQLKSGTASVVCLLNNFYPREAKVQWKVDNALQSGNSQESVTEQDSKDSTYSLSSTLTLSKADYEKHKVYACEVTHQGLSSPVTKSFNRGEC
notes: Outer AB071 (VEGF), inner AB072 (DLL4); HC linker short, LC linker short; also called DVD-Ig DVD492
- Kd: 1.07 nM
- koff: 8.35e-05 s⁻¹
- kon: 78200 M⁻¹ s⁻¹

B9: DVD504 (bispecific antibody, human IgG1, kappa)
heavy: not shown
light: B8 light
notes: Outer AB071 (VEGF), inner AB072 (DLL4); HC linker long, LC linker short; also called DVD-Ig DVD504
- Kd: 1.26 nM
- koff: 7.32e-05 s⁻¹
- kon: 58100 M⁻¹ s⁻¹

B14: DVD452 (bispecific antibody, human IgG1, kappa, L234A L235A)
heavy: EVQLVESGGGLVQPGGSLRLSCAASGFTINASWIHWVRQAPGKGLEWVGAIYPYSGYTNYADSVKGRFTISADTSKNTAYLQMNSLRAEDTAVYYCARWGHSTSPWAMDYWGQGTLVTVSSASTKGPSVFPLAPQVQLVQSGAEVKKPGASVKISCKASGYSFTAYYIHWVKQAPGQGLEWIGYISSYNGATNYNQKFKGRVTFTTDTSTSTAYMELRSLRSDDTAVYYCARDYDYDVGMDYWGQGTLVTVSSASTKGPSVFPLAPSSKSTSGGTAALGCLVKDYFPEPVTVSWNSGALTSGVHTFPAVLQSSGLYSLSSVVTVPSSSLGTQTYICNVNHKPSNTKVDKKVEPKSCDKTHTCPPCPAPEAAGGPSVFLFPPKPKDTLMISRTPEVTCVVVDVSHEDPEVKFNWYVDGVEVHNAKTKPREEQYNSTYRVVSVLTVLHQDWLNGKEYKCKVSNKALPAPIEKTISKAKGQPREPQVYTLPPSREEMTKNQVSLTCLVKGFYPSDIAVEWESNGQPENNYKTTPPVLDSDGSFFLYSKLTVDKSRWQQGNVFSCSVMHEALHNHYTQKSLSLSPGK
light: DIQMTQSPSSLSASVGDRVTITCRASQVIRRSLAWYQQKPGKAPKLLIYAASNLASGVPSRFSGSGSGTDFTLTISSLQPEDFATYYCQQSNTSPLTFGQGTKVEIKRTVAAPSVFIFPPDIVMTQSPDSLAVSLGERATISCRASESVDNYGISFMKWFQQKPGQPPKLLIYAASNQGSGVPDRFSGSGSGTDFTLTISSLQAEDVAVYYCQQSKEVPWTFGGGTKVEIKRTVAAPSVFIFPPSDEQLKSGTASVVCLLNNFYPREAKVQWKVDNALQSGNSQESVTEQDSKDSTYSLSSTLTLSKADYEKHKVYACEVTHQGLSSPVTKSFNRGEC
notes: Outer AB071 (VEGF), inner AB069 (DLL4); HC linker long, LC linker long; also called DVD-Ig DVD452
- Kd: 9.3 nM
- koff: 0.00022 s⁻¹
- kon: 23700 M⁻¹ s⁻¹

B15: DVD464 (bispecific antibody, human IgG1, kappa)
heavy: not shown
light: B14 light
notes: Outer AB071 (VEGF), inner AB069 (DLL4); HC linker short, LC linker long; also called DVD-Ig DVD464
- Kd: 5.53 nM
- koff: 0.000182 s⁻¹
- kon: 32800 M⁻¹ s⁻¹
